Laboratory results published in the supplement of paper PMC7877785.
± gives the uncertainty stated by the source.

Experiment: self-splicing fitness, log relative to wild type (ln ratio); higher = more splicing; Tetrahymena group I intron in knt gene, E. coli kanamycin selection, DiMSum; sequences stand for … in CUCUCU…GGAGGGAAAAGUUAUCAGGCAUGCACCUGGUAGCUAGUCUUUAAACCAAUAGAUUGCAUCGGUUUAAAAGGCAAGACCGUCAAAUUGCGGGAAAGGGGUCAACAGCCGUUCAGUACCAAGUCUCAGGGGAAACUUUGAGAUGGCCUUGCAAAGGGUAUGGUAAUAAGCUGACGGACAUGGUCCUAACCACGCAGCCAAGUCCUAAGUCAACAGAUCUUCUGUUGAUAUGGAUGCAGUUCACAGACUAAAUGUCGGUCGGGGAAGAUGUAUUCUUCUCAUAAGAUAUAGUCGGACCUCUCCUUAAUGGGAGCUAGCGGAUGAAGUGAUGCAACACUGGAGCCGCUGGGAACUAAUUUGUAUGCGAAAGUAUAUUGAUUAGUUUUGGAGUACUCGUGGUCG
Summary of the method: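 The eight P1ex-region nucleotides of an intron in the knt kanamycin-resistance gene on pET-22b(+) were all randomised and the library put into E. coli BL21(DE3). Six replicate transformations were grown overnight at 37°C or 30°C on LB agar with or without 25 μg/mL kanamycin, together with 100 μg/mL carbenicillin, 50 μM IPTG and 0.2% rhamnose. Colonies were pooled and amplicon-sequenced on an Illumina HiSeq 2500. Fitness from DiMSum is the error-weighted combination of wild-type-normalised replicate fold changes, kanamycin over none.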

In the case of AUGCAGCAAUAUUACGAUUA, the “self-splicing fitness (ln)” value (30 °C) is reported as -1.32 ± 0.1 and the “self-splicing fitness (ln)” value (37 °C) is reported as -0.923 ± 0.1.
With AUAUAGCAAUAUUACGCCAA the “self-splicing fitness (ln)” value (30 °C) was -1.24 ± 0.45 and the “self-splicing fitness (ln)” value (37 °C) was -0.89 ± 0.42.
For CUUAAGCAAUAUUACGAAGG, the “self-splicing fitness (ln)” value (30 °C) was -2.89 ± 0.17 and the “self-splicing fitness (ln)” value (37 °C) was -1.54 ± 0.24.
In the case of CACGAGCAAUAUUACGCAAC, the “self-splicing fitness (ln)” value (30 °C) is reported as -1.88 ± 0.44 and the “self-splicing fitness (ln)” value (37 °C) is reported as -2.56 ± 0.36.
With CUGAAGCAAUAUUACGGGCG the “self-splicing fitness (ln)” value (30 °C) was 0.0611 ± 0.06 and the “self-splicing fitness (ln)” value (37 °C) was -0.103 ± 0.074.
In the case of UGCCAGCAAUAUUACGAUUC, the “self-splicing fitness (ln)” value (30 °C) is reported as -2.68 ± 0.18 and the “self-splicing fitness (ln)” value (37 °C) is reported as -2.41 ± 0.3.
In the case of AAACAGCAAUAUUACGGAGG, the “self-splicing fitness (ln)” value (30 °C) is reported as -4.68 ± 0.36 and the “self-splicing fitness (ln)” value (37 °C) is reported as -1.86 ± 0.2.
In the case of UAAUAGCAAUAUUACGUGUC, the “self-splicing fitness (ln)” value (30 °C) is reported as -3.02 ± 0.23 and the “self-splicing fitness (ln)” value (37 °C) is reported as -2.44 ± 0.3.
With AGUGAGCAAUAUUACGGGUC the “self-splicing fitness (ln)” value (30 °C) was -3.17 ± 0.28 and the “self-splicing fitness (ln)” value (37 °C) was -3.06 ± 0.43.
In the case of AGCUAGCAAUAUUACGUCUG, the “self-splicing fitness (ln)” value (30 °C) is reported as -1.88 ± 0.097 and the “self-splicing fitness (ln)” value (37 °C) is reported as -1.56 ± 0.13.
With GUUAAGCAAUAUUACGACCU the “self-splicing fitness (ln)” value (30 °C) was -0.481 ± 0.14 and the “self-splicing fitness (ln)” value (37 °C) was -0.37 ± 0.2.
In the case of AACAAGCAAUAUUACGCUUU, the “self-splicing fitness (ln)” value (30 °C) is reported as -3.18 ± 0.15 and the “self-splicing fitness (ln)” value (37 °C) is reported as -2.77 ± 0.18.
For CCUGAGCAAUAUUACGUAGG, the “self-splicing fitness (ln)” value (30 °C) was -2.55 ± 0.15 and the “self-splicing fitness (ln)” value (37 °C) was -2.24 ± 0.32.
In the case of AAAAAGCAAUAUUACGGCGG, the “self-splicing fitness (ln)” value (30 °C) is reported as -1.18 ± 0.059 and the “self-splicing fitness (ln)” value (37 °C) is reported as -0.131 ± 0.077.
For CUUGAGCAAUAUUACGCGCG, the “self-splicing fitness (ln)” value (30 °C) was -3.32 ± 0.29 and the “self-splicing fitness (ln)” value (37 °C) was -1.63 ± 0.25.
In the case of UUGGAGCAAUAUUACGGGGU, the “self-splicing fitness (ln)” value (30 °C) is reported as -4.02 ± 0.4 and the “self-splicing fitness (ln)” value (37 °C) is reported as -2.44 ± 0.33.
For UGGUAGCAAUAUUACGGCCC, the “self-splicing fitness (ln)” value (30 °C) was -0.562 ± 0.18 and the “self-splicing fitness (ln)” value (37 °C) was -0.000115 ± 0.21.
With CGUAAGCAAUAUUACGCGCC the “self-splicing fitness (ln)” value (37 °C) was -1.97 ± 0.35.
With AUAGAGCAAUAUUACGAUGC the “self-splicing fitness (ln)” value (37 °C) was -1.36 ± 0.32.
For UGACAGCAAUAUUACGUGAC, the “self-splicing fitness (ln)” value (30 °C) was -2.64 ± 0.12 and the “self-splicing fitness (ln)” value (37 °C) was -1.37 ± 0.19.
In the case of AGUUAGCAAUAUUACGGCCA, the “self-splicing fitness (ln)” value (30 °C) is reported as -0.965 ± 0.16 and the “self-splicing fitness (ln)” value (37 °C) is reported as 0.403 ± 0.29.
In the case of CGCAAGCAAUAUUACGUACU, the “self-splicing fitness (ln)” value (30 °C) is reported as -1.64 ± 0.075 and the “self-splicing fitness (ln)” value (37 °C) is reported as -0.119 ± 0.096.
In the case of AUGUAGCAAUAUUACGGAAU, the “self-splicing fitness (ln)” value (30 °C) is reported as -1.46 ± 0.082 and the “self-splicing fitness (ln)” value (37 °C) is reported as -0.789 ± 0.11.
For CAAUAGCAAUAUUACGUAUC, the “self-splicing fitness (ln)” value (30 °C) was -3.48 ± 0.15 and the “self-splicing fitness (ln)” value (37 °C) was -2.73 ± 0.18.
In the case of UAUUAGCAAUAUUACGGACG, the “self-splicing fitness (ln)” value (30 °C) is reported as -0.257 ± 0.11 and the “self-splicing fitness (ln)” value (37 °C) is reported as 0.171 ± 0.12.
With AAAGAGCAAUAUUACGUAUG the “self-splicing fitness (ln)” value (30 °C) was -3.72 ± 0.25 and the “self-splicing fitness (ln)” value (37 °C) was -2.06 ± 0.17.
With UGACAGCAAUAUUACGGAAA the “self-splicing fitness (ln)” value (30 °C) was -2.03 ± 0.12 and the “self-splicing fitness (ln)” value (37 °C) was -1.75 ± 0.14.
In the case of CCGCAGCAAUAUUACGGAUU, the “self-splicing fitness (ln)” value (30 °C) is reported as -3.8 ± 0.14 and the “self-splicing fitness (ln)” value (37 °C) is reported as -2.75 ± 0.16.
In the case of CCUAAGCAAUAUUACGUCCG, the “self-splicing fitness (ln)” value (30 °C) is reported as -1.34 ± 0.11 and the “self-splicing fitness (ln)” value (37 °C) is reported as -0.638 ± 0.11.
In the case of UAUUAGCAAUAUUACGGCUG, the “self-splicing fitness (ln)” value (30 °C) is reported as -0.432 ± 0.079 and the “self-splicing fitness (ln)” value (37 °C) is reported as 0.0834 ± 0.13.
For ACUUAGCAAUAUUACGAUAU, the “self-splicing fitness (ln)” value (30 °C) was -1.62 ± 0.087 and the “self-splicing fitness (ln)” value (37 °C) was -1.18 ± 0.11.
For CAUUAGCAAUAUUACGCCAA, the “self-splicing fitness (ln)” value (30 °C) was -2.88 ± 0.33 and the “self-splicing fitness (ln)” value (37 °C) was -2.63 ± 0.48.
In the case of GGACAGCAAUAUUACGUUAU, the “self-splicing fitness (ln)” value (30 °C) is reported as -0.282 ± 0.046 and the “self-splicing fitness (ln)” value (37 °C) is reported as 0.102 ± 0.066.
With GAUCAGCAAUAUUACGGAAU the “self-splicing fitness (ln)” value (30 °C) was -1.27 ± 0.065 and the “self-splicing fitness (ln)” value (37 °C) was -0.181 ± 0.087.
For GUUCAGCAAUAUUACGGUCC, the “self-splicing fitness (ln)” value (30 °C) was -0.652 ± 0.19 and the “self-splicing fitness (ln)” value (37 °C) was 0.182 ± 0.23.
For UGGCAGCAAUAUUACGCGGA, the “self-splicing fitness (ln)” value (30 °C) was -1.48 ± 0.098 and the “self-splicing fitness (ln)” value (37 °C) was -0.878 ± 0.095.
In the case of AGUAAGCAAUAUUACGCGUG, the “self-splicing fitness (ln)” value (30 °C) is reported as -3.44 ± 0.2 and the “self-splicing fitness (ln)” value (37 °C) is reported as -1.46 ± 0.16.
In the case of CCAUAGCAAUAUUACGUCCU, the “self-splicing fitness (ln)” value (30 °C) is reported as -2.86 ± 0.23 and the “self-splicing fitness (ln)” value (37 °C) is reported as -2.64 ± 0.48.
With UAGUAGCAAUAUUACGAAGC the “self-splicing fitness (ln)” value (37 °C) was -1.73 ± 0.45.
With UACUAGCAAUAUUACGUUCU the “self-splicing fitness (ln)” value (30 °C) was -2.47 ± 0.25 and the “self-splicing fitness (ln)” value (37 °C) was -1.03 ± 0.19.
For CUUUAGCAAUAUUACGCACG, the “self-splicing fitness (ln)” value (30 °C) was -1.41 ± 0.21 and the “self-splicing fitness (ln)” value (37 °C) was -0.277 ± 0.2.
With GGUAAGCAAUAUUACGUGUA the “self-splicing fitness (ln)” value (30 °C) was -1.73 ± 0.078 and the “self-splicing fitness (ln)” value (37 °C) was -0.95 ± 0.086.
For UCGUAGCAAUAUUACGUCCC, the “self-splicing fitness (ln)” value (30 °C) was -2.74 ± 0.3.
In the case of GCCAAGCAAUAUUACGUGGG, the “self-splicing fitness (ln)” value (30 °C) is reported as -2.97 ± 0.1 and the “self-splicing fitness (ln)” value (37 °C) is reported as -3.25 ± 0.13.
In the case of CAACAGCAAUAUUACGAUAC, the “self-splicing fitness (ln)” value (30 °C) is reported as -3.29 ± 0.28 and the “self-splicing fitness (ln)” value (37 °C) is reported as -2.91 ± 0.37.
For GAGUAGCAAUAUUACGCUGU, the “self-splicing fitness (ln)” value (30 °C) was -3.36 ± 0.23 and the “self-splicing fitness (ln)” value (37 °C) was -1.48 ± 0.22.
In the case of AUUAAGCAAUAUUACGGGGA, the “self-splicing fitness (ln)” value (30 °C) is reported as -3.62 ± 0.38 and the “self-splicing fitness (ln)” value (37 °C) is reported as -1.41 ± 0.18.
With GCUGAGCAAUAUUACGACUA the “self-splicing fitness (ln)” value (30 °C) was -1.55 ± 0.22 and the “self-splicing fitness (ln)” value (37 °C) was -1.72 ± 0.21.
For ACGAAGCAAUAUUACGAGUC, the “self-splicing fitness (ln)” value (30 °C) was -4.22 ± 0.24 and the “self-splicing fitness (ln)” value (37 °C) was -2.21 ± 0.19.
